Laboratory results taken from patent US20230110128A1, “USE OF ANTIBODY DRUG CONJUGATES COMPRISING TUBULIN DISRUPTING AGENTS TO TREAT SOLID TUMOR” (Seagen Inc., priority 2018, published 2023).

How the values were obtained:
MCF7 cells [1] = experiment: HMGB1 release from MCF7 cells; format: cell-based
Experimental: (§1) Induction of ICD is also characterized by the secretion of ATP and HMGB1. Extracellular ATP serves as a strong chemotactic signal, promoting immune cell migration to the tumor site. Upon arrival, extracellular HMGB1 signals through various pro-inflammatory receptors (TLR2, TLR4, RAGE) to activate antigen-presenting cells, thereby promoting immune activity within the tumor.
as §1, with “MCF7 cells were treated with MMAE or an MMAE-containing ADC (SGN-LIV1A) for 16 hours and harvested in […] for western bot analysis. […] Induction” for “Induction”

[2] = system: PC-3 cells subcutaneously engrafted; experiment: Cytokine/chemokine production in PC-3 tumor-bearing mice by ELISA; format: in vivo, athymic nude mice; settings: PC-3 tumors, single intraperitoneal dose, 8 days post-ADC treatment
Experimental: In another study, athymic nude mice were subcutaneously engrafted with PC-3 cells. Upon reaching 200 cubic millimeters, mice received a single intraperitoneal dose of an MMAE-containing ADC (SGN-LIV1A or anti-CD71-MMAE). 8 days post-ADC treatment, tumors were excised and homogenized in RIPA buffer and cytokine/chemokine production was measured by ELISA. Peripheral cytokine levels were also measured in the serum by ELISA.

[3] = system: PC-3 cells subcutaneously engrafted; experiment: Immune cell infiltration of PC-3 tumors by flow cytometry; format: in vivo, athymic nude mice; settings: single intraperitoneal dose, 8 days post-ADC treatment
From the text: Athymic nude mice were subcutaneously engrafted with PC-3 cells. Upon reaching 200 cubic millimeters, mice received a single intraperitoneal dose of an MMAE-containing ADC (SGN-LIV1A or anti-CD71-MMAE). 8 days post-ADC treatment, tumors were excised and assessed for immune cell infiltration and composition by flow cytometry.

[4] = system: MCF7 cells subcutaneously engrafted; experiment: Immune cell composition of MCF7 tumors by flow cytometry; format: in vivo; settings: SOD mice with MCF7 tumors, single intraperitoneal dose, 8 days post-ADC treatment
From the text: […] were subcutaneously engrafted with MCF7 cells. Upon reaching 200 cubic millimeters, mice received a single intraperitoneal dose of an MMAE-containing ADC (SGN-LIV1A or anti-CD71-MMAE). 8 days post-ADC treatment, tumors were excised and assessed for immune cell composition by flow cytometry.

MCF7 breast cancer cells = experiment: Western blot analysis of ER stress response in MCF7 cells; format: cell-based; settings: FIG. 16A
Experimental: MCF7 breast cancer cells were treated with 100 nM MMAE for 16 hours and harvested RIPA buffer for western blot analysis.
as §1, with “MCF7 cells were treated with MMAE or an MMAE-containing ADC (SGN-LIV1A) for 16 hours and harvested in […] for western bot analysis. […] Induction” for “Induction”

MCF7 cells [5] = experiment: ATP secretion from MCF7 cells; format: cell-based

B1: SGN-LIV1A (conjugate, chains of the INN, looked up)
VH: QVQLVQSGAEVKKPGASVKVSCKASGLTIEDYYMHWVRQAPGQGLEWMGWIDPENGDTEYGPKFQGRVTMTRDTSINTAYMELSRLRSDDTAVYYCAVHNAHYGTWFAYWGQGTLVTVSS
VL: DVVMTQSPLSLPVTLGQPASISCRSSQSLLHSSGNTYLEWYQQRPGQSPRPLIYKISTRFSGVPDRFSGSGSGTDFTLKISRVEAEDVGVYYCFQGSHVPYTFGGGTKVEIK
modifications: vedotin (MMAE) payload
MCF7 cells [1]
  Secretion of HMGB1: increased secretion
[2]
  Cytokine and chemokine production (intratumoral and serum): elevated cytokine and chemokine production
[3]
  Activation of tumor-infiltrating immune cells: enhanced activation
  Infiltration of immune cells into tumors: increased infiltration of immune cells
[4]
  Immune activation by tumor-infiltrating immune cells: increased level of immune activation by tumor-infiltrating immune cells
MCF7 breast cancer cells
  Severe ER stress (phosphorylation of IRE1 and JNK): elicits severe ER stress (phosphorylation of IRE1 and JNK)
MCF7 cells [5]
  Secretion of ATP: increased secretion
MCF7 cells [5]; after 48 hours of treatment
  ATP secretion: Increased AIR secretion
